# Laboratory results published in patent US20240182561A1 (Regeneron, published 2024).
# Where a chain is given by its changes, count along the chain named. Like-named read-outs stand apart in the source and are kept apart here.
# T1: mouse CACNG1 expressed on cells (mouse, UniProt O70578 1-223)
# T1 sequence (looked up): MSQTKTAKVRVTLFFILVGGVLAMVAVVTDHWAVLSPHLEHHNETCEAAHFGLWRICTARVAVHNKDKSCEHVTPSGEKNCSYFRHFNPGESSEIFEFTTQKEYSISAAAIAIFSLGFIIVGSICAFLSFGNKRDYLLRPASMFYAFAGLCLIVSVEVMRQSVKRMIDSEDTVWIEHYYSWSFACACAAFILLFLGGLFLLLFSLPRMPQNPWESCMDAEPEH
# B1: REGN9908 (antibody, mouse IgG2b, V domains shown)
# VH: EVQLLESGGGLAQPGGSLRLSCAASGFTFSSYAMSWVRQAPGKGLEWVSSVSGSGGTTYYAASVKGRFTVSRDNSKKTLYLQMNSLRAEDTAVYYCGKGGYCSSSGCRHYGMDVWGQGTTVTVSA
# VL: QSVLTQPPSASGTPGQRVAISCSGSNSNIGNNYLYWYQQIPGTTPKLLIYRNNQRPSGVPDRFSASKSGTSASLAISGLRSGDEADYYCAAWDDSLSGYVFGTGTKVTVLG
# notes: mIgG2b
# B2: REGN9909 (antibody, mouse IgG2a, kappa, V domains shown)
# VH: EVQLLESGGGLVQPGGSLRLSCAASGFTFNNYGMSWVRQGPGKGLEWVSSISGSGGTTFYADSVKGRFTISRDNSKNTLYLQMNSLRAEDTAVYYCGKGGYCSSSGCRHYGMDVWGQGTTVTVSS
# VL: B1 VL with A19T, N26S, L34I, Q39R, I40L, A65G, G82E, S95T, G111R
# notes: mIgG2a
# B3: REGN14572 (antibody, human IgG1, kappa, N297Q)
# heavy: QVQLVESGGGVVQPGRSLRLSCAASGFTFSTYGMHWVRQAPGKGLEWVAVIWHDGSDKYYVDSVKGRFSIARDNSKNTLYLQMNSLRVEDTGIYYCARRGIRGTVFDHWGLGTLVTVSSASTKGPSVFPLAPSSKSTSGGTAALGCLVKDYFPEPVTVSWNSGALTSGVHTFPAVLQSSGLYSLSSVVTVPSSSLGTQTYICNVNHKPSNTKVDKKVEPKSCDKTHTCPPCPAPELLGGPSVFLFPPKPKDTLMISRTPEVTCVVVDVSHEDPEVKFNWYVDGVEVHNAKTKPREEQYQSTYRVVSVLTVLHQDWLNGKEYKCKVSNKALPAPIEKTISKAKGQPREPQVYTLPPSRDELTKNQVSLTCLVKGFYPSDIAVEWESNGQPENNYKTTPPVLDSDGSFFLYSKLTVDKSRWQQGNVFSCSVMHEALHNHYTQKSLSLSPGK
# light: DIQMTQSPSTLSASVGDRVTLTCRASQSISNKLAWYQQKPGKAPNLLIYKASNLESGVPSRFSGSGSGTEFTLTISSLQPDDFATYYCQQYNSYSWTFGQGTKVEIKRTVAAPSVFIFPPSDEQLKSGTASVVCLLNNFYPREAKVQWKVDNALQSGNSQESVTEQDSKDSTYSLSSTLTLSKADYEKHKVYACEVTHQGLSSPVTKSFNRGEC
# B4: REGN14573-M3004 (antibody, human IgG1, lambda, N297Q)
# heavy chain: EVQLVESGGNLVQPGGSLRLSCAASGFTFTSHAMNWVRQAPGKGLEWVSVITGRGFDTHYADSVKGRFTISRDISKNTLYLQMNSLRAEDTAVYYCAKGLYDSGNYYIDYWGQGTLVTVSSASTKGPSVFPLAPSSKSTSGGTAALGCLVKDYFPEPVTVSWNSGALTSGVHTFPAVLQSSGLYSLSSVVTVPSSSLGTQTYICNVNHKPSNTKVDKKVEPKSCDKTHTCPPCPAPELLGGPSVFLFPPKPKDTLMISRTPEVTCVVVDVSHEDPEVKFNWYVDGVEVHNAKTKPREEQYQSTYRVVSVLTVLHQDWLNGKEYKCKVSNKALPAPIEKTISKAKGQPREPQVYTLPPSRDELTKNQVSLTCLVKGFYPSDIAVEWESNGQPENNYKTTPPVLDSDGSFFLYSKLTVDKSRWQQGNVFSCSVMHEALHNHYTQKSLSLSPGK
# light chain: QSVLTQPPSVSAAPGQKVTISCSGSSSNIGNNYVSWYQQLPGTAPKLLIYDNNKRPSGIPDRFSGSKSGTSATLGITGLQTGDEADYYCGTWDLSLSFNWVFGGGTKLTVLGQPKAAPSVTLFPPSSEELQANKATLVCLISDFYPGAVTVAWKADSSPVKAGVETTTPSKQSNNKYAASSYLSLTPEQWKSHRSYSCQVTHEGSTVEKTVAPTECS
# modifications: N297Q; DHT linker-payload M3004 conjugated, DAR about 4
# B5: REGN10716 (antibody, human IgG4 S228P, kappa)
# heavy: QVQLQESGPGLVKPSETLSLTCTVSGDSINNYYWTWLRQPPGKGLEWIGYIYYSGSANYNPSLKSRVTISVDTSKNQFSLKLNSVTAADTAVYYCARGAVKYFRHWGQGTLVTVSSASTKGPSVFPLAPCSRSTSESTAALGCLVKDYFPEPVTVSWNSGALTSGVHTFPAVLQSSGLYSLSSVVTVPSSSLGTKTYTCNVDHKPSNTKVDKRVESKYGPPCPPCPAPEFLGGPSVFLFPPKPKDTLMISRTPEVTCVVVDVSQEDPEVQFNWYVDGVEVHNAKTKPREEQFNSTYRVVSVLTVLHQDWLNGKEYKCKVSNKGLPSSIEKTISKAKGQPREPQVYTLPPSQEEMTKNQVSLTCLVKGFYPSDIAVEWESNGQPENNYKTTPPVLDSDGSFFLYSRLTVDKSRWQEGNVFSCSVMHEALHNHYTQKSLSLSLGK
# light: EIVLTQSPGTLSLSPGERATLSCRASQTINHNNLAWYQQRPGQAPRLLIYGASNRATAIPDRFSGSGSGTDFTLTISRLEPEDFEVYSCQQYGSLPLTFGGGTKVEIKRTVAAPSVFIFPPSDEQLKSGTASVVCLLNNFYPREAKVQWKVDNALQSGNSQESVTEQDSKDSTYSLSSTLTLSKADYEKHKVYACEVTHQGLSSPVTKSFNRGEC
# notes: hIgG4
# B6: REGN14571-M3004 (antibody, human IgG1, kappa, N297Q)
# heavy chain: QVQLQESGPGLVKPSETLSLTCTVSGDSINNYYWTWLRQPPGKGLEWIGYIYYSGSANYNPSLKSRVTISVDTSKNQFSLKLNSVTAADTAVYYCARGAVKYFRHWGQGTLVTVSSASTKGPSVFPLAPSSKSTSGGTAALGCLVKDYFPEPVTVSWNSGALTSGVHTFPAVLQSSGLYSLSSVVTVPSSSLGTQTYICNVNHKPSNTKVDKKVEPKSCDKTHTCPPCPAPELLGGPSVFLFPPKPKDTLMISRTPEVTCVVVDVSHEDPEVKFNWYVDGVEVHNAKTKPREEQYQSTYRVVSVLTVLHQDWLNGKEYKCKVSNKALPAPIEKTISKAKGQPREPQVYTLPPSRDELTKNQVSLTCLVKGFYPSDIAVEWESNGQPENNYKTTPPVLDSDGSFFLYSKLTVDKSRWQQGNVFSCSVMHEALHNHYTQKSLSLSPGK
# light chain: B5 light
# modifications: N297Q; DHT linker-payload M3004 conjugated, DAR about 4
# Legend:
# [1] = target: T2, human CACNG1 expressed on cells (human, UniProt Q06432 1-222); test: cell-based or functional assay
# [2] = target: T2, human CACNG1 expressed on cells; test: imaging cell binding, HuSKM myotubes
# Protocol: (§1) HuSKM were seeded in collagen-coated 96-well plates (Greiner Bio-One #655956) at 8,500 cells/well and grown for 24 hours. The growth media was changed to MyoTonic Differentiation Media (Cook Myosite Cat #MD-5555) and replaced every 2 days. Myotubes were assayed after 6 days of differentiation. C2C12 mouse myoblasts were maintained in DMEM with 10% FBS and 1% penicillin-streptomycin supplement and grown in a 37° C. incubator with 5% CO₂. C2C12 cells were seeded in collagen-coated 96-well plates (Greiner Bio-One #655956) at 10,000 cells/well for the cell binding assay and 5,000 cells/well for the cell killing assay. After 24 hours, growth media was replaced with differentiation media (DMEM with 2% horse serum) and placed in a 37° C. incubator with 7.5% CO₂. C2C12 myotubes were assayed after 3 days of differentiation. HEK293/hCACNG1, HEK293/mCACNG1, and HEK293 cells were seeded at 10,000 cells (cell binding assay) or 2,000 (cell killing assay) per well in 96-well black collagen coated plates (Greiner Bio-One, cat #655956) in complete growth media and grown overnight at 37° C. in 5% CO₂.
# (§2) Relative binding of anti-CACNG1 antibodies was assessed across the entire panel of cell lines via imaging analysis. […] After one wash with antibody dilution buffer, samples were fixed in CytoFix (BD Biosciences, Cat #554655) diluted 1:1 in PBS and supplemented with a 1:2000 dilution of Hoechst 33342 (Thermo, Cat #H1399) for 20 minutes on ice. Images were acquired with a 10× objective on the Opera Phenix (Perkin Elmer) and relative fluorescence units (RFU) was determined using Harmony software (Perkin Elmer).
# [3] = target: T3, nanodisc embedded human CACNG1 expressed with a C-terminal PADRE-Flag-His tag (human, UniProt Q06432 1-222); test: SPR, anti-His-captured nanodisc, 25 C
# T3 construct: Captured on an anti-His Biacore surface; also called human CACNG1 nanodisc; CACNG1 nanodisc; not shown: C-terminal tag
# Protocol: Equilibrium dissociation constants (KD values) for nanodisc embedded human CACNG1 expressed with a C-terminal […] tag (human CACNG1 nanodisc; concentration 0.82 mg/ml) binding to purified anti-CACNG1 antibodies were determined using a real-time surface plasmon resonance biosensor technology with a Biacore T200 instrument. The CM5 Biacore sensor surface was derivatized by amine coupling with a monoclonal mouse anti-His antibody (Cytiva; Marlborough, MA). All Biacore binding studies were performed in a buffer composed of 0.01M HEPES, 0.15M NaCl, 1 mM CaCl₂, 0.5 mM MgCl₂, pH 7.4 (HBS-N++ running buffer). Different concentrations of anti-CACNG1 antibodies (ranging from 300 nM to 12 nM in 5-fold serial dilutions) prepared in HBS-N++ running buffer were injected over the captured human CACNG1 nanodisc at a flow rate of 30 μL/minute. Antibody association was monitored for 2 minutes while dissociation was monitored in HBS-N++ running buffer for 5 minutes. At the end of each cycle, the human CACNG1 nanodisc capture surface was regenerated using three 10 second injections of 10 mM Gly pH1.5. All binding kinetics experiments were performed at 25° C.
# The specific SPR-Biacore sensorgrams were obtained by a double referencing procedure. The double referencing was performed by first subtracting the signal of each injection over a reference surface (anti-His) from the signal over the experimental surface (anti-His captured human CACNG1 nanodisc) thereby removing contributions from refractive index changes. In addition, running buffer injections were performed to allow subtraction of the signal changes resulting from the dissociation of captured antibodies from the coupled anti-His surface. Kinetic association (kₐ) and dissociation ([…]) rate constants were determined by fitting the real-time sensorgrams to a 1:1 binding model using Scrubber v2.0c curve fitting software. Binding dissociation equilibrium constants (KD) and dissociative half-lives (t %) were calculated from the kinetic rate constants as: […]
# [4] = target: T2, human CACNG1 expressed on cells; test: cell-based or functional assay; remark: listed apart in the source
# [5] = target: T1, mouse CACNG1 expressed on cells; test: cell-based or functional assay
# [6] = target: T2, human CACNG1 expressed on cells; test: imaging cell binding, HEK293/hCACNG1
# Protocol: as §1, §2
# [7] = target: T2, human CACNG1 expressed on cells; test: imaging cell binding, HuSKM myotubes; remark: listed apart in the source
# Protocol: as §1, §2
# [8] = target: T1, mouse CACNG1 expressed on cells; test: imaging cell binding, C2C12 mouse myotubes
# Protocol: as §1, §2
# [9] = target: T2, human CACNG1 expressed on cells; test: cell-based or functional assay; remark: listed apart in the source
# [10] = target: T2, human CACNG1 expressed on cells; test: cell-based or functional assay; remark: listed apart in the source
# [11] = target: T2, human CACNG1 expressed on cells; test: cell-based or functional assay; remark: listed apart in the source
# [12] = target: T2, human CACNG1 expressed on cells; test: cell-based or functional assay; remark: listed apart in the source
# [13] = target: T2, human CACNG1 expressed on cells; test: cell-based or functional assay; remark: listed apart in the source
# [14] = target: T2, human CACNG1 expressed on cells; test: cell-based or functional assay; remark: listed apart in the source
# [15] = target: T2, human CACNG1 expressed on cells; test: imaging cell binding, HEK293/hCACNG1; remark: listed apart in the source
# Protocol: as §1, §2
# [16] = target: T1, mouse CACNG1 expressed on cells; test: imaging cell binding, HEK293/mCACNG1
# Protocol: as §1, §2
# [17] = target: T1, mouse CACNG1 expressed on cells; test: imaging cell binding, C2C12 mouse myotubes; remark: listed apart in the source
# Protocol: as §1, §2
# T2 sequence (Q06432 whole entry): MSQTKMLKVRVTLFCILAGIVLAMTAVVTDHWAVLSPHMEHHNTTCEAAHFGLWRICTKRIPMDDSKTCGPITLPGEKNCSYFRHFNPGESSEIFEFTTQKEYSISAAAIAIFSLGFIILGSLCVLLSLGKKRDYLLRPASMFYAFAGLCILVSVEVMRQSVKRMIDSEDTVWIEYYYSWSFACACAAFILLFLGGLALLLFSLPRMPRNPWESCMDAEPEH
# T3 sequence (Q06432 whole entry): as above
binder,measurement,setting,value
B1,"EC50/IC50, indirect cell killing, HuSKM",[1],0.0859 nM
same,EC50,[2],14.8 nM
same,S/N,[2],164 fold
same,Kd,[3],9.57 nM
same,koff,[3],0.00402 s⁻¹
same,kon,[3],419000 M⁻¹ s⁻¹
same,mAb bound at 300 nM,[3],21 RU
same,t1/2,[3],2.9 min
B2,"% KILL, indirect cell killing, HEK293/hCACNG1",[4],95.2%
same,"% KILL, indirect cell killing, HuSKM",[4],99.5%
same,"EC50/IC50, indirect cell killing, HEK293/hCACNG1",[4],0.00235 nM
same,"EC50/IC50, indirect cell killing, HuSKM",[4],0.0183 nM
same,"% KILL, indirect cell killing, HEK293/mCACNG1",[5],88.5%
same,"EC50/IC50, indirect cell killing, HEK293/mCACNG1",[5],0.0612 nM
same,"EC50/IC50, indirect cell killing, HuSKM",[1],0.00968 nM
same,EC50,[2],6.51 nM
same,S/N,[2],141 fold
same,EC50,[6],1.6 nM
same,S/N,[6],5.4 fold
same,EC50,[7],14 nM
same,S/N,[7],171 fold
same,Kd,[3],4.15 nM
same,koff,[3],0.00137 s⁻¹
same,kon,[3],331000 M⁻¹ s⁻¹
same,mAb bound at 300 nM,[3],22 RU
same,t1/2,[3],8.4 min
same,EC50,[8],8.3 nM
same,S/N,[8],4.2 fold
B3,"EC50 of androgen receptor luciferase reporter activation (RLU) by the DHT conjugate REGN14572-M3004 in hCACNG1.AR.Luc LNCaP cells, 24 hours; concentration adjusted for DAR",[9],11.2 nM
same,"EC50 of androgen receptor luciferase reporter activation (RLU) by the DHT conjugate REGN14572-M3004 in hCACNG1.AR.Luc LNCaP cells, 48 hours; concentration adjusted for DAR",[10],11.9 nM
same,"EC50 of androgen receptor luciferase reporter activation (RLU) by the DHT conjugate REGN14572-M3004 in hCACNG1.AR.Luc LNCaP cells, 72 hours; concentration adjusted for DAR",[11],10.3 nM
B4,"EC50 of androgen receptor luciferase reporter activation (RLU) by the DHT conjugate REGN14573-M3004 in hCACNG1.AR.Luc LNCaP cells, 24 hours; concentration adjusted for DAR",[12],214 nM
same,"EC50 of androgen receptor luciferase reporter activation (RLU) by the DHT conjugate REGN14573-M3004 in hCACNG1.AR.Luc LNCaP cells, 48 hours; concentration adjusted for DAR",[13],213 nM
same,"EC50 of androgen receptor luciferase reporter activation (RLU) by the DHT conjugate REGN14573-M3004 in hCACNG1.AR.Luc LNCaP cells, 72 hours; concentration adjusted for DAR",[14],185 nM
B5,"% KILL, indirect cell killing, HEK293/hCACNG1",[4],95.1%
same,"% KILL, indirect cell killing, HuSKM",[4],61.7%
same,"EC50/IC50, indirect cell killing, HEK293/hCACNG1",[4],0.00295 nM
same,"EC50/IC50, indirect cell killing, HuSKM",[4],0.34 nM
same,"% KILL, indirect cell killing, C2C12",[5],99.9%
same,"% KILL, indirect cell killing, HEK293/mCACNG1",[5],91.2%
same,"EC50/IC50, indirect cell killing, C2C12",[5],0.0167 nM
same,"EC50/IC50, indirect cell killing, HEK293/mCACNG1",[5],0.00893 nM
same,EC50,[15],> 100 nM
same,S/N,[15],35.9 fold
same,EC50,[16],> 100 nM
same,S/N,[16],21.4 fold
same,EC50,[2],13 nM
same,S/N,[2],466 fold
same,EC50,[6],> 100 nM
same,S/N,[6],2.2 fold
same,EC50,[7],12 nM
same,S/N,[7],81.1 fold
same,Kd,[3],0.114 nM
same,koff,[3],8.36e-05 s⁻¹
same,kon,[3],730000 M⁻¹ s⁻¹
same,mAb bound at 300 nM,[3],31 RU
same,t1/2,[3],138 min
same,EC50,[17],> 100 nM
same,S/N,[17],6.3 fold
same,EC50,[8],> 100 nM
same,S/N,[8],5.2 fold
B6,"EC50 of androgen receptor luciferase reporter activation (RLU) by the DHT conjugate REGN14571-M3004 in hCACNG1.AR.Luc LNCaP cells, 24 hours; concentration adjusted for DAR",[9],7.83 nM
same,"EC50 of androgen receptor luciferase reporter activation (RLU) by the DHT conjugate REGN14571-M3004 in hCACNG1.AR.Luc LNCaP cells, 48 hours; concentration adjusted for DAR",[10],6.95 nM
same,"EC50 of androgen receptor luciferase reporter activation (RLU) by the DHT conjugate REGN14571-M3004 in hCACNG1.AR.Luc LNCaP cells, 72 hours; concentration adjusted for DAR",[11],5.44 nM
